For two molecules, Ka results are on record in PMC8054141, “The molecular basis of the inhibition of CaV1 calcium-dependent inactivation by the distal carboxy tail” (The Journal of Biological Chemistry, 2021).

The target of the experiment is T1, Cerulean-ICDI1.4 (human).
T1 construct: CaV1.4 alpha1 subunit, human clone NP005174.2; ICDI domain of the distal carboxy tail; Fluorophore cloned KpnI/NotI and the channel peptide NotI/XbaI in pcDNA3, so Cerulean probably precedes the peptide; also called ICDI domain from CaV1.4; source: HEK293, transiently transfected (PEI), in live cells
Kind of experiment: FRET or BRET; live-cell FRET two-hybrid (3^3-FRET) in HEK293 cells on an inverted microscope; Venus-tagged peptide as acceptor, Cerulean-tagged peptide as donor; FRET ratio of each cell against free donor concentration; Tyrode's bath with 2 mM CaCl2, pH 7.4; relative Kd calibrated and converted to Ka = 1/Kd. The conditions noted are these: partners not purified.

B1: Venus-PreIQ3-IQ-A1.3 (domain or fragment)
chain: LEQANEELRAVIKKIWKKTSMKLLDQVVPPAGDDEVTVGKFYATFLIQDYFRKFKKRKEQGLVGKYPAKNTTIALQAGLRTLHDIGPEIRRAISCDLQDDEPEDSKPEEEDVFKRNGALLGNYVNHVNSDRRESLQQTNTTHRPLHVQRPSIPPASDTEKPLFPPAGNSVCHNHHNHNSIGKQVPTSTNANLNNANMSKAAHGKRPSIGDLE
modifications: Limits approximate: about 30 residues PreIQ3 + IQ + about 150 residues A region. Position of the IQ isoleucine (I[0]) on P27732 was inferred as 1656; the paper's numbering (KPY1626, ALQ1635) implies …
Regarding B1, the Ka was determined as 2.14e+07 M⁻¹.

B2: Venus-PreIQ3-IQ-A1.3 F[−2]A (domain or fragment)
chain: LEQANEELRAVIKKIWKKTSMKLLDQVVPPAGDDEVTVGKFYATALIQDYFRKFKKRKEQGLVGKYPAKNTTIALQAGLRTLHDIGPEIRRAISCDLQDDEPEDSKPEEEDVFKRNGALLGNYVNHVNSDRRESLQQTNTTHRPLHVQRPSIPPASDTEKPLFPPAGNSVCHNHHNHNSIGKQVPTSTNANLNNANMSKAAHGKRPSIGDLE
modifications: F[-2]A, two residues before the canonical IQ isoleucine (inferred as 1656 on P27732). Limits approximate, as for m1. Venus tag omitted.
For B2, the Ka was 5.8e+06 M⁻¹.
